Assay results: patent publication US11607466B2, “Tumor and immune cell imaging based on PD-L1 expression” (The Johns Hopkins University, priority 2016, dated 2023)
“And” between values parts separate entries of the source, which are not always exact repeats. Identical values can stand only once.

Biological target: T1, PD-L1 in hPD-L1 tumors (Homo sapiens, UniProt Q9NZQ7)
T1 construct: expressed in transfected cells; grown as tumours in NSG mice for the in vivo units
Assay: Tumor PD-L1 engagement by AtzMab measured with [64Cu]WL12, hPD-L1/CHO tumors
Assay type: in vivo, mouse
Conditions: AtzMab 20 mg/kg 24 h prior to tracer
From the text: 2.1.3.3 PD-L1 therapeutic antibody accumulation in the tumors by PD-L1 PET: While evaluating the specificity of WL12 for PD-L1, it was discovered that WL12 competes with AtzMab to the same binding site on PD-L1. This provides a novel and previously unanticipated means to evaluate AtzMab therapy at tumor sites, where it is needed, using PD-L1-directed PET. Improved understanding of the distribution of PD-L1 antibodies in tumors may impact clinical antibody dosing and therapeutic monitoring. Therefore, the ability of [^64Cu]WL12-PET to assess AtzMab binding to PD-L1 within tumors was tested. Accumulation of radioactivity in hPD-L1 tumors was reduced by 80% in mice injected with AtzMab (20 mg/kg) as quantified by [^64Cu]WL12-PET and biodistribution studies (FIG. 21A, FIG. 21B, and FIG. 21C). […] The applicability of this approach was extended to cancer cell lines with native increase in PD-L1 expression.
To assess the effect of a single dose of AtzMab on targeting different PD-L1 levels in the tumors, PET and biodistribution studies were performed in tumors derived from the CHO-hPDL1 cell line, which has four- to ten-fold higher PD-L1 expression than NSCLC cells (FIG. 36). […] Those observations were confirmed by strong and week immunoreactivity observed in hPD-L1 and CHO tumors, respectively (FIG. 35I).

T1 sequence (Q9NZQ7 19-290): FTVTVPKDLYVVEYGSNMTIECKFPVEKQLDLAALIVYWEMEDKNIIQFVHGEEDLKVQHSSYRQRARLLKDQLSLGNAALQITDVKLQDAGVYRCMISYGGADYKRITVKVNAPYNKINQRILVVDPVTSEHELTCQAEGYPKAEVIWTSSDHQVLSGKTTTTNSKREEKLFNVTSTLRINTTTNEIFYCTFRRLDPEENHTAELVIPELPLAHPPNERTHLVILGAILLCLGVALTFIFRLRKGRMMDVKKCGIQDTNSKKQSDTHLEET

Substance: AtzMab: therapeutic PD-L1 antibody Atezolizumab
- reduction of [64Cu]WL12 accumulation in hPD-L1 tumors: 80% and 77%
